Data on ten sequences can be found in the DeepSol protein solubility set.

This data set is described as follows: soluble on expression in E. coli; label from the status in PepcDB or PDB records.
Consider “MGVMNKGDSVEKCYMCDAEGNTKEHVPPKCIFPEAKDVPSGDNYKKNLITVRSCEKHNTAKSKDDVYLLFFLAANVVSNDLAQTQFGTKIMRAVNRTPHVFAQFAKKNTPVTLKGENGELIHTAAIEIDRARFDAAIEHISHALHYHKYGETFIGDIQVITSGLVDLSSIDSVEVNDRIQNFGQMVDELLADVEPEGDNPEVFTYKVLKTDEPHQVIIQMNFYGGFKIVSIMKYS”, for which the “soluble on expression in E. coli” value is “not soluble”.

As to “MGVQTHVLELTSSVSAEKIFQGFVIDVDTVLPKAAPGAYKSVEIKGDGGPGTLKIITLPDGGPITTMTLRIDGVNKEALTFDYSVIDGDILLGFIESIENHVVLVPTADGGSICKTTAIFHTKGDAVVPEENIKYANEQNTALFKALEAYLIAN”, the “soluble on expression in E. coli” value is recorded as “soluble”.

With “MGVYPPSEDSFLIIEYASCSGKAIEIGCGTGIVSICFLKRGCDIEAVDISDLAVECAKDNASRNGLTLKVYRSDLFSGVSGTYDTILFNAPYIPVEGEDASWSGGRNLEVVSRFLGQAREHLSASGQIYIVLSDLTDNEGMFRMMGYDYFIIKKISFEFEAIVLYKLTLKALEHHHHHH”, the “soluble on expression in E. coli” value is on record as “not soluble”.

As for “MGWPVISGDYIVGDPKSPVAVVTLASDYQSLNLKNYAICGTCFTENFGIEKVIVNVLSNPRISCLVVCGQESDHFAGQSLLALAENGVSAFGGSKRIIGSEGVIPYLDDIPATAISRFLREIEVIDLVGTTDPAVIQQAIDSCSGKERGEAPELSMPEINEHSWKKYEPEVKKNIMSKIKK”, the “soluble on expression in E. coli” value is reported as “not soluble”.

For the sequence “MHAYLHCLSHSPLVGYVDPAQEVLDEVNGVIASARERIAAFSPELVVLFAPDHYNGFFYDVMPPFCLGVGATAIGDFGSAAGELPVPVELAEACAHAVMKSGIDLAVSYCMQVDHGFAQPLEFLLGGLDKVPVLPVFINGVATPLPGFQRTRMLGEAIGRFTSTLNKRVLFLGSGGLSHQPPVPELAKADAHMRDRLLGSGKDLPASERELRQQRVISAAEKFVEDQRTLHPLNPIWDNQFMTLLEQGRIQELDAVSNEELSAIAGKSTHEIKTWVAAFAAISAFGNWRSEGRYYRPIPEWIAGFGSLSARTEN”, the “soluble on expression in E. coli” value was “not soluble”.

With “MHDANIRVAIAGAGGRMGRQLIQAALALEGVQLGAALEREGSSLLGSDAGELAGAGKTGVTVQSSLDAVKDDFDVFIDFTRPEGTLNHLAFCRQHGKGMVIGTTGFDEAGKQAIRDAAADIAIVFAANFSVGVNVMLKLLEKAAKVMGDYTDIEIIEAHHRHKVDAPSGTALAMGEAIAHALDKDLKDCAVYSREGHTGERVPGTIGFATVRAGDIVGEHTAMFADIGERLEITHKASSRMTFANGAVRSALWLSGKESGLFDMRDVLDLNNL”, the “soluble on expression in E. coli” value is “soluble”.

Consider “MHDRSYTLDDVTVAMGTYNEAAAIDTVLTDIADATDDRARVVCVDGSSDRTPEIAREHGATVIEQEPQGYGVAVAAALDAADTPVVITTDCDNTYPMERIPAFLARINEGYDVVSGDRLYWGADTMPAFNRLGNAAFAAITSLLVGERVHDTTTGMRAYRAPVIDAIDWTQNTGLSAELLIRPLCRNYDVIEEPIGYADRLGDTKLDPLEGGAEILGSILKVCAEERLPLEHHHHHH”, for which the “soluble on expression in E. coli” value was “not soluble”.

On to “MHENMKDSLKRPLQDLRISVIDRCNFRCTYCMPAEVFGPDYAFLQEECLLTFDEIERLARLFISMGVNKIRLTGGEPLLRKDLPKLIARLAKLEGLKDIGLTTNGIHLAKQAKALKEAGLKRVNISLDAIEDRVFQKINGRHVSTKPVLKGIEAAKEAGLEVKVNMVVKKGMNDSQILPMAQYFKEQEIQLRFIEFMDVGSTNGWNFEQVVTKEQLIEKINRVYPIEPVKPRYFGEVAKLYRYVGNDAEVGFITSVSESFCSSCTRARISADGKFYTCLFGEKGTDLRSLLRENISDASLLKILQHTWEFRTDRYSDERTAESTNKRQKVEMSYIGG”, for which the “soluble on expression in E. coli” value is given as “not soluble”.

Take “MHEYYYIYWYLSEFLYAWLMSTLSRADGSQMAEERIMEEQQKGRSSKKTKKKKKVRPLSREITMSQAYQNMCAGMFKTMVAFDMDGKVRKPKFELDSEQVRYEHRFAPFNSVMTPPPVHYLQFKEMSDLNKYSPPPQSPELYVAASKHFQQAKMILENIPNPDHEVNRILKVAKPNFVVMKLLAGGHKKESKVPPEFDFSAHKYFPVVKLVLEHHHHHH”: the “soluble on expression in E. coli” value is reported as “not soluble”.

Consider “MHFGKHNVDFMLPSLRKEWEDPEKIVSQIPIQPNFDIVDLGCGPGFFTLPLSETTDGKVYAIDASQEMIDALKQRIDGRSNIVTIKAPAEKIPLPDLSADLVFIANAYHDFDDRDEVLSEIYRILRAGRFLVDIDWKKEETTRGPPIDIRIDKKEAMLEIASHNFDIESEIEAGPHHYGLIFKKILEHHHHHH”, for which the “soluble on expression in E. coli” value is “soluble”.
